# Legend:
# [1] = Solubility of PFPA substrate; format: physicochemical
# Experimental: The enzyme tolerates acetone concentrations as high as 20% v/v. The PFPA substrate has a limited solubility of 40 mM in aqueous media, but was increased to 60 mM with the addition of acetone.
# [2] = Reductive amination, spectrophotometric assay at 340 nm; format: biochemical; settings: for Reductive amination specific activity: maximum specific activity, nonlinear fit
# Experimental: (§1) Activity of purified proteins was measured using a spectrophotometric assay at 340 nm, corresponding to the cofactor nicotinamide adenine dinucleotide (NADH, ε340=6220 M^−1 cm^−1) (Dawson, et al., Clarendon Press, (1989). For reductive amination, reactions took place in 500 mM NH4Cl/NH4OH at pH 9.6, with 200 μM NADH and 20 mM of the ketone substrate, unless otherwise specified. For oxidative deamination, reactions took place in 0.1 M NaHCO3/Na2CO3 buffer at pH 10.0, with 1 mM NAD+ with 10 mM of the amine substrate of interest. All reactions were performed at 25° C. unless otherwise specified. Enzyme was added in 10 μL aliquots in dilute concentrations. Enzyme concentrations varied upon activity levels with the substrate present, but were dilute enough to ensure linear conversion kinetics over the analytical time period (10 min to 30 min). Specific activities were then calculated from the stoichiometric conversion of cofactor as determine by the change in absorbance at 340 nm over time.
# [3] = Oxidative deamination, spectrophotometric assay at 340 nm; format: biochemical; settings: for Oxidative deamination specific activity: maximum specific activity, 1,3-DMBA
# Experimental: as §1, with “For oxidative deamination, reactions took place in 0.1 M NaHCO3/Na2CO3 buffer at pH 10.0, with 1 mM NAD+ with 10 mM of the amine substrate of interest.” left out
# [4] = Amination of phenylpyruvate; format: biochemical; settings: 500 mM NH4Cl/NH4OH pH 9.6, 200 μM NADH, 5 mM phenylpyruvate, 25° C.
# Experimental: (§2) The wild-type PheDH from B. badius was characterized to ensure proper expression and folding prior to mutation. […] KM values were determined for the substrates when possible, and corresponded well to those values found in literature (110). Additionally, the K1 value of ammonia was determined to be 5.0 M. The KM of phenylpyruvate could not be determined due to its high absorbance at the analytical wavelength. The wild-type enzyme was determined to be properly folded and active.
# Deamination of L-Phe = format: biochemical; settings: 0.1 M Glycine pH 10.0, 1 mM NAD+, 20 mM L-Phe, 25° C.
# Experimental: as §2
# [5] = Kinetic parameters for ammonia (PheDH / PheDH-AmDH); format: biochemical; settings: amination of phenylpyruvate; read-out: KM, NH3
# Experimental: as §2
# Kinetic parameters, kcat and KM, were determined for the enzyme and each of the reductive amination substrates; respectively. […] The kcat value for this AmDH enzyme with all three substrates saturated in aqueous NH4Cl/NH4OH buffer at pH 9.6 was 6.85 s^−1 at 25° C. This represents a near 15-fold enhancement above the maximum observed kcat of 0.46 s^−1 of the previously developed LeuDH-AmDH.
# [6] = Native leucine dehydrogenase activity; format: biochemical
# Experimental: as §1
# [7] = Oxidative deamination, spectrophotometric assay at 340 nm; format: biochemical
# Experimental: as §1, with “For oxidative deamination, reactions took place in 0.1 M NaHCO3/Na2CO3 buffer at pH 10.0, with 1 mM NAD+ with 10 mM of the amine substrate of interest.” left out
# The enantioselectivity was initially estimated by measuring the deamination activity toward individual enantiomers of methylbenzylamine (MBA). […] A preference towards (R)-MBA over the corresponding (S)-enantiomer was evident in the discrepancies between the deamination activities of 0.586 U mg^−1 and 0.002 U mg^−1, respectively. These preliminary results were corroborated through direct measurement of the enantioselectivity of the MIBK amination in producing chiral 1,3-DMBA.
# [8] = Conversion with GDH cofactor recycle system (LeuDH-AmDH); format: biochemical; settings: 10 mM MIBK
# Experimental: Initial rate kinetic measurements are used primarily in the determination of kinetic parameters to avoid second-order effects and product inhibition. The enzyme's ability to reach complete substrate conversion cannot be determined from these initial rate experiments, and was instead evaluated by chiral GC of overnight conversion with a GDH recycle system. The GDH regenerates the expensive NADH by redox reaction of NAD+ and inexpensive glucose (FIG. 1). In 1.5 mL reactions, replicates containing 10 mM MIBK substrate was mixed with an excess of 12 mM glucose, 10 U GDH, and a catalytic amount of NADH (200 μM). Histag purified K67S/E113V/N261L/V290C LeuDH-AmDH (0.13 mg) was added to each reaction and allowed to convert for 18 hours. An additional 0.13 mg of enzyme was then added and allowed to react for 10 hours to achieve the maximum conversion. One mL aliquots of the final reaction media were adjusted to pH>13 by the addition of 100 μL of 10 N NaOH and derivatized in toluene according to the TFAA protocol.
# The product amine was additionally confirmed through ^1H NMR. A 175 mL-scale amination reaction with GDH cofactor recycle was performed similar to previous conversion experiments. […] Following separation, the solvent was removed through rotovap distillation, and the purified product was analyzed by ^1H NMR. […]
# [9] = purified LeuDH library 10/11 hits
molecule,measurement,setting,value
"CC(=O)Cc1ccc(F)cc1 [PFPA, para-fluoro phenyl acetone]",solubility,[1]; aqueous media,40 mM
same,solubility,"[1]; aqueous media with added acetone, aqueous with cosolvent or surfactant or cyclodextrin, with the addition of acetone",60 mM
"Wild Type: PheDH from Bacillus badius, SEQ ID NO:1 (protein, listed as Bacillus badius) SLVEKTSIIKDFTLFEKMSEHEQVVFCNDPATGLRAIIAIHDTTLGPALGGCRMQPYNSVEEALEDALRLSKGMTYKCAASDVDFGGGKAVIIGDPQKDKSPELFRAFGQFVDSLGGRFYTGTDMGTNMEDFIHAMKETNCIVGVPEAYGGGGDSSIPTAMGVLYGIKATNKMLFGKDDLGGVTYAIQGLGKVGYKVAEGLLEEGAHLFVTDINEQTLEAIQEKAKTTSGSVTVVASDEIYSQEADVFVPCAFGGVVNDETMKQFKVKAIAGSANNQLLTEDHGRHLADKGILYAPDYIVNSGGLIQVADELYEVNKERVLAKTKHIYDAILEVYQQAELDQITTMEAANRMCEQRMAARGRRNSFFTSSVKPKWDIRN","Amination Activity 40 mM MIBK, kcat","[2]; 500 mM NH4Cl/NH4OH pH 9.6, 200 μM NADH, 25° C.",—No Activity—
same,"Deamination Activity 40 mM 1,3-DMBA, kcat","[3]; 0.1M Glycine pH 10.0, 1 mM NAD+, 25° C.",—No Activity—
same,activity in the amination of phenylpyruvate,[4],greater than 257 U mg^−1
same,activity in the deamination of L-Phe,Deamination of L-Phe,39.5 U mg^−1
same,Km,[5],64.5 mM
"WT: LeuDH from Bacillus stearothermophilus, SEQ ID NO:4 (protein, listed as Bacillus stearothermophilus) ELFQYMEKYDYEQVLFCQDKESGLKAIIVIHDTTLGPALGGTRMWMYNSEEEALEDALRLARGMTYKNAAAGLNLGGGKTVIIGDPRKDKNEAMFRAFGRFIQGLNGRYITAEDVGTTVADMDIIYQETDYVTGISPEFGSSGNPSPATAYGVYRGMKAAAKEAFGSDSLEGKVVAVQGVGNVAYHLCRHLHEEGAKLIVTDINKEAVARAVEEFGAKAVDPNDIYGVECDIFAPCALGGIINDQTIPQLKAKVIAGSADNQLKEPRHGDMIHEMGIVYAPDYVINAGGVINVADELYGYNRERAMKKIEQIYDNIEKVFAIAKRDNIPTYVAADRMAEERIETMRKARSQFLQNGHHILSRRRAR",activity for reductive amination,[2]; MIBK,no measurable activity
same,Reductive amination specific activity,[2]; MIBK,n.m.^[c]
same,Oxidative deamination specific activity,[3],n.m.
same,native activity toward 1-Leu,[6],112 U mg^−1
"K67S/E113V/N261L/V290C: LeuDH-AmDH quadruple variant, SEQ ID NO:10, library 11 (protein) ELFQYMEKYDYEQVLFCQDKESGLKAIIVIHDTTLGPALGGTRMWMYNSEEEALEDALRLARGSTYMNAAAGLNLGGGKTVIIGDPRKDKNEAMFRAFGRFIQGLNGRYITAVDVGTTVADMDIIYQETDYVTGISPEFGSSGNPSPATAYGVYRGMKAAAKEAFGSDSLEGKVVAVQGVGNVAYHLCRHLHEEGAKLIVTDINKEAVARAVEEFGAKAVDPNDIYGVECDIFAPCALGGIINDQTIPQLKAKVIAGSADLQLKEPRHGDMIHEMGIVYAPDYVINAGGCINVADELYGYNRERAMKKIEQIYDNIEKVFAIAKRDNIPTYVAADRMAEERIETMRKARSQFLQNGHHILSRRRAR","Specific activity, acetophenone",[2]; 20 mM substrate,58.8 mU mg^−1 protein
same,"Specific activity, cyclohexanone",[2]; 20 mM substrate,123.4 mU mg^−1 protein
same,"Specific activity, ethyl pyruvate",[2]; 20 mM substrate,13.2 mU mg^−1 protein
same,"Specific activity, ethyl-3-oxohexanoate",[2]; 20 mM substrate,14.0 mU mg^−1 protein
same,"Specific activity, methyl acetoacetate",[2]; 20 mM substrate,4.5 mU mg^−1 protein
same,kcat,[2]; MIBK amination,0.46 s⁻¹
same,Km,"[2]; MIBK substrate, read-out: KM (reductive amination)",15.1 mM
same,amination activity,"[2]; MIBK, non-linear Michaelis-Menten fit",0.69 U mg^−1
same,Reductive amination specific activity,[2]; MIBK,0.690 U mg^−1 protein
same,Amination of MIBK Vmax,[2]; [9],0.331 ± 0.07
same,Km,"[2]; purified LeuDH library 10/11 hits, read-out: Amination of MIBK KM",18.7 ± 11.7 mM
same,"Specific activity, cyclohexylamine",[3]; 20 mM substrate,56.0 mU mg^−1 protein
same,"Specific activity, (R/S)-MBA","[3]; 40 mM racemic, 20 mM of each enantiomer",784.6 mU mg^−1 protein
same,Km,"[3]; 1,3-DMBA substrate, read-out: KM (oxidative deamination)",57.5 mM
same,Oxidative deamination specific activity,[3],2.64 U mg^−1 protein
same,"Deamination of 1,3-DMBA Vmax",[3]; [9],2.350 ± 0.26
same,Km,"[3]; purified LeuDH library 10/11 hits, read-out: Deamination of 1,3-DMBA KM",41.9 ± 9.7 mM
same,deamination activity toward (R)-MBA,[7],0.586 U mg^−1
same,deamination activity toward (S)-MBA,[7],0.002 U mg^−1
same,"Specific activity, (R)-MBA",[7]; 20 mM substrate,586.3 mU mg^−1 protein
same,"Specific activity, (S)-MBA",[7]; 20 mM substrate,1.6 mU mg^−1 protein
same,average substrate conversion,"[8]; 1.5 mL, 18 h + 10 h, chiral GC",92.5%
same,conversion,"[8]; 175 mL-scale, 48 hours",84.7%
